Consider one substance from publication PMC8188212, “Multi‐Arm PEG/Peptidomimetic Conjugate Inhibitors of DR6/APP Interaction Block Hematogenous Tumor Cell Extravasation” (Advanced Science, 2021).

The target of one series is T1, DR6 protein (Homo sapiens, UniProt O75509).
T1 construct: purchased Sino Biology, Inc. (Shanghai, China)
T1 sequence (O75509 42-655): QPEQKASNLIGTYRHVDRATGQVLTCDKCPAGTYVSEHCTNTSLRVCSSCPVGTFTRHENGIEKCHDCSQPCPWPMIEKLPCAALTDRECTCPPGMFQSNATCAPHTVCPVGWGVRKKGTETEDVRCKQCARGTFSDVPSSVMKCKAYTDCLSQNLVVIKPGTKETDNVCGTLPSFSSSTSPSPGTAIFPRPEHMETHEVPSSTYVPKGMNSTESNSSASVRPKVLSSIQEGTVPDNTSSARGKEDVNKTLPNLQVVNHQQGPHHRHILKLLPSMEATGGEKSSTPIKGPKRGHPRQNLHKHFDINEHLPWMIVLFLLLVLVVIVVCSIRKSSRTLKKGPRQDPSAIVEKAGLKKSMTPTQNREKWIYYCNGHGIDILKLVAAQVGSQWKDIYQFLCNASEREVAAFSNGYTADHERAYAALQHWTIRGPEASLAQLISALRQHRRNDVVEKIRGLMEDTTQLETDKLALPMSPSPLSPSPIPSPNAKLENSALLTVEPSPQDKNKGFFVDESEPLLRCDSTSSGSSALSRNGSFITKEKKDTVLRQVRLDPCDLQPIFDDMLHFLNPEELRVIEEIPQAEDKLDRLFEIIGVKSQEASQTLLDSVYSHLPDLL
The series can be described thus: KD of DR6-targeting peptides for binding to DR6 protein by MST. As to the method: For labeling DR6 protein with Red‐tris‐NTA second‐generation dye, equal volume of DR6 protein (200 × 10^–9 M) and dye (100 × 10^–9 M) were mixed. The solution was incubated for 30 min at room temperature and centrifuged for 10 min at 4 ℃ and 15 000 × g. The DR6 protein was labeled and ready for the binding assay. Prepare 25 µL of the DR6‐targeting peptides at 20 × 10^–6 M and add 10 µL of the PBS‐T into the PCR tubes 2–12. Transfer 20 µL DR6‐targeting peptides into the PCR tube 1 and then transfer 10 µL of the DR6‐targeting peptides from tube 1 to tube 2 with a pipette and mix by pipetting up and down multiple times. Transfer 10 µL to tube 3 and mix. Repeat the procedure for tube 4–12. Add 10 µL of labeled protein to each tube (1–12) and mix by pipetting. The final DR6 protein concentration was 50× 10^−9 M. Load the capillaries and measure the samples by NanoTemper Monolith NT.015.^[ ^51 , ^52 ^]

Another series deals with hERG potassium channel (Homo sapiens, UniProt Q12809). Description: Whole-cell patch clamp recording of hERG current. Type of series: cell-based. As to conditions: cisapride as positive control. As to the method:
In addition, some common adverse effects suffered by frequently used medications were also evaluated. The whole‐cell patch clamp recording technique was used to record the whole‐cell hERG‐potassium to measure the cardiac toxicity of peptidomimetic agents on hERG potassium channel by utilizing cisapride as positive control (Figure 6E; Figure S10, Supporting Information). […] Meanwhile, the blood biochemical indexes of ligand‐treated mice sacrificed on day 2 or day 15 were tested to examine the influences of peptidomimetic agents to liver and kidney (Figure S11, Supporting Information).

Series [1] deals with T2, DR6/APP interaction (B16F10, SGC-996, LLC1 TCs on DR6 protein coated plates) (Homo sapiens, UniProt O75509).
T2 construct: His tag (inferred from RED-tris-NTA labelling of the same purchased protein in the MST assay); purchased Sino Biology, Inc. (Shanghai, China); host or cells: DR6 coated on 96-well plates; tumour cells B16F10, SGC-996, LLC1 carry endogenous APP
T2 sequence (O75509 42-349 limits assumed): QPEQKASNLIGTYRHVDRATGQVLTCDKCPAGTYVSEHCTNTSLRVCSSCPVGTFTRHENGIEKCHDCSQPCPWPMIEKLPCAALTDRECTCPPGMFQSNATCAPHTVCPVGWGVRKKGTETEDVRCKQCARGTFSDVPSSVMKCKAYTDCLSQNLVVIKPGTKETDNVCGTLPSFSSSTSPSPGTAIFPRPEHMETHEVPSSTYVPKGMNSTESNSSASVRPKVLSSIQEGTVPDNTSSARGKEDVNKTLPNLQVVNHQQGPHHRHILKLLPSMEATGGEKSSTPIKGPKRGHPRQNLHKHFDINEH
The series can be described thus: Cell attachment of TCs to DR6-coated plates. It counts as cell-based. As to conditions: 1 h at 37 °C, crystal violet, microplate reader, n = 3. As to the method: DR6 protein in 50 µL PBS (50 × 10^–9 M) was added into 96‐well plates. The 96‐well plates were incubated for 2 h at 37 °C, followed by drying overnight at 4 °C. Next day, the 96‐well plates were warmly washed three times with PBS, and then blocked by PBS containing 1% BSA for 1 h at 37 °C. The plates were washed three times with PBS. TCs were suspended in serum‐free DMEM at a density of 3 × 10^5 cells mL^–1; 50 µL of the cell suspension was added to wells coated with the DR6‐targeting peptides. Different concentrations of DR6‐targeting peptides or PBS were added into the plates. After incubation at 37 °C for 1 h, non‐adherent cells were gently washed away with PBS, fixed with 4% paraformaldehyde at room temperature for 30 min, washed, stained with 5% crystal violet 50 µL per well for 10 min, gently washed with PBS, and decolorized with 33% acetic acid. The attachment cell number was measured by a microplate reader.^[ ^53 ^]

The nature of series [2]: DLS analysis of size in solution. It counts as physicochemical. Here is the method:
AHP‐DRI‐12 with additional Cys residue at the C‐terminal and 4‐arm PEG5k maleimide was dissolved in PBS (0.1 M, pH = 8) at a molar ratio of 8:1. The reaction mixture was stirred for 4 h at room temperature and then dialyzed in a Slide‐A‐Lyzer dialysis cassette (Thermo Fisher Scientific, Shanghai, China) (MWCO: 3500 Da) against water. The dialysate containing the pure product was lyophilized. The products were confirmed by nuclear magnetic resonance (^1H NMR) spectra using a Bruker Avance 500 (500 MHz) spectrometer (Beijing, China).

Series [3] concerns TCs over HUVECs monolayer. Description: Transendothelial migration of TCs over HUVEC monolayer. As to conditions: AHP-DRI-12 and PEG-tAHP-DRI 1 × 10^−6 M (AHP-DRI-12), Nec-1 30 × 10^–6 M, zVAD 100 × 10^–6 M; 48 h; compared with control; n = 3. Type of series: cell-based, human. As to the method: HUVECs (1 × 10^5) in DMEM were added into 24‐well plate transwell upper chambers and the medium was changed every 2 days. Using the EVOM resistance tester, the transendothelial resistance was measured daily. When the TEER resistance value was >200 Ωcm^2, the cells grew into a monolayer of tight connection. 2 × 10^5 GFP‐TCs were added into upper chambers. One milliliter DMEM containing 10% FBS was added into lower chambers overnight. AHP‐DRI‐12 and PEG‐tAHP‐DRI (1 ×10^–6 M AHP‐DRI‐12), Nec‐1 (30 × 10^–6 M), and zVAD (100 × 10^–6 M) were added in upper chambers, respectively. After incubation for 48 h, cells in lower chambers were observed by fluorescence microscope.^[ ^56 ^]

Square brackets hold non-standard residues; d marks the D form. Side chains are listed from the residue outwards. Ends that are not written are not given here. maleimide = maleimide: 4-arm PEG5k maleimide reacting with the C-terminal Cys thiol

hERG potassium channel, sequence (Q12809 whole entry): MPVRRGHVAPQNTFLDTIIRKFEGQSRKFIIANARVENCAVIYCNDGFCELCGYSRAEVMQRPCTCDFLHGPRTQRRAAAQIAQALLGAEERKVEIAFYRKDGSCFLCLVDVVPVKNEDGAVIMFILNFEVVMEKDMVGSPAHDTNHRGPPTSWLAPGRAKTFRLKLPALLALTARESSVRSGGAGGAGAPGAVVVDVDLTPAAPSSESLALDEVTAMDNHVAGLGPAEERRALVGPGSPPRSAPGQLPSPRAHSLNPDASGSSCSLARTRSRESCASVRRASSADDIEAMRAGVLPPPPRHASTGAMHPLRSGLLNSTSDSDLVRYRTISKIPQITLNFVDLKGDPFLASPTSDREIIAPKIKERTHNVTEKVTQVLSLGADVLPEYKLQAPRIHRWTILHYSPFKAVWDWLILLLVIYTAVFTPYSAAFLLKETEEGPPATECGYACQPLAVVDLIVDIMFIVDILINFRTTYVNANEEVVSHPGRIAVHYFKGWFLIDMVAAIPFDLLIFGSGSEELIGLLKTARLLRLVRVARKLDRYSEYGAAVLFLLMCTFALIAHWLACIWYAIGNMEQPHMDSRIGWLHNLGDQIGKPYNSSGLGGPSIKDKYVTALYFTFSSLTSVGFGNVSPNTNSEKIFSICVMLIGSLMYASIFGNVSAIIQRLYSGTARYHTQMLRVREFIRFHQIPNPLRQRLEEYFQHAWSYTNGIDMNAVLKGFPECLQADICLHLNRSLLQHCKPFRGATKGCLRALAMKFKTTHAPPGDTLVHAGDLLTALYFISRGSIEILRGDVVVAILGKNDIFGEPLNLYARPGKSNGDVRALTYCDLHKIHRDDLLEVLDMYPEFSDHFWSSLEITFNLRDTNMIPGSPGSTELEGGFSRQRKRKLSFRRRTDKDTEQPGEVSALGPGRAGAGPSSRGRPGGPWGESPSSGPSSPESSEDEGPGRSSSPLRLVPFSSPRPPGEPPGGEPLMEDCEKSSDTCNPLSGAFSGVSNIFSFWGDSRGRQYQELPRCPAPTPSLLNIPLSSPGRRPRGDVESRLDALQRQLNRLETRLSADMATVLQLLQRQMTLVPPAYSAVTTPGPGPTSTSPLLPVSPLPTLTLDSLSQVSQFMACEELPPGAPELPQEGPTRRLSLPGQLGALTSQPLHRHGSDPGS

In the case of “PEG-tAHP-DRI: tetra-(D-retro-inverso isomer of AHP-12) substitued 4-arm PEG5k ([dP][dT][dT][dA][dD][dI][dT]C([maleimide-4‑arm PEG5k]); also: four peptides on one 4-arm PEG5k)”, the Kd (as a rule, the constant that tells how readily two partners part at equilibrium) with DR6 protein (RED-tris-NTA labeled DR6 protein, final 50 × 10^−9 M, PBS-T, main text and Figure 2B-D, read-out: KD) is around 50 nM. In addition, in the series with DR6 protein (from KD values), the “binding affinity to DR6 relative to AHP-DRI-12” value is listed as “almost fourfold greater binding affinity”. Also, the “inhibitory effect on hERG channels” value with hERG potassium channel is reported as “no significant inhibitory effect”. Further, the “disruption of attachment between TCs and DR6-coated plates” value in series [1] is “most obvious disruption of attachment”. Also, the “size distribution in solution (hydration dynamic radius, DLS)” value in series [2] is listed as “≈ 10 nm”. Also, the TCs transendothelial migration result in series [3] is reported as “significantly attenuated TCs transendothelial migration”.
